# Biological target: sucrose synthase (Nicotiana tabacum (endogenous in BY-2 cells))
# Experiment: native gel or EMSA; two-dimensional blue native PAGE (4-14.5% gradient, 4°C) then SDS-PAGE of BY-2 plasma membrane proteins solubilized with 1% n-octyl-beta-D-glucopyranoside (750 mM amino caproic acid, 100 mM BisTris pH 7.0); subunits detected by immunoblotting on separate blots; association judged by comigration
substance,measurement,value
sucrose synthase (enzyme),stoichiometry N,4
